Data taken from US20240269312A1, “ANTIBODY DRUG CONJUGATE, AND PREPARATION METHOD THEREFOR AND USE THEREOF” (SICHUAN KELUN-BIOTECH BIOPHARMACEUTICAL CO., LTD., priority 2021, published 2024).
Positions count from the first letter of the chain named. Values belong to the molecule of their own block, whether it stands above or below them.

Legend:
[1] = target: human ROR1 (on the cell surface) (human) (UniProt Q01973); test: flow cytometry, Ba/F3-ROR1 cells, D10 as detection antibody
human ROR1 ECD protein [2] = target: T1, human ROR1 ECD protein (human, UniProt Q01973 30-406); test: BLI (Octet ForteBio), antibody on AHC probe, ROR1 ECD in solution
T1 construct: extracellular domain; also called human ROR ECD protein
Description: The dynamic affinities of 19F6_Hu35V1, 3D8_HuC24, 38F8_Hu57 and the positive control PGP-1501 antibody UC961 to human ROR1 ECD protein were determined by Octet ForteBio method.

human ROR1 ECD protein [3] = target: human ROR1 ECD protein (Homo sapiens, UniProt Q01973); test: Dynamic affinity determination by Octet ForteBio; assay type: binding; settings: for kdis / kon: 1:1 kinetic binding model, UC961 value is an average of three determinations
Description: The dynamic affinities of 19F6_Hu35V1, 3D8_HuC24, 38F8_Hu57 and the positive control PGP-1501 antibody UC961 to human ROR1 ECD protein were determined by Octet ForteBio method. The specific experimental steps were as follows: the anti-human IgG Fc AHC probe (ForteBio) was first bound to the antibody to be tested to a response signal value of 0.8-1.2 nm, and the dynamic affinity was measured by immersing the antibody-coated probe into wells containing human ROR ECD protein at different concentrations (16, 8, 4, 2, 1, 0.5, 0.25, and 0 μg/mL), the binding was conducted for 2-4 minutes, followed by dissociation for 4-6 minutes, 1:1 kinetic binding model was used for all fitting analysis.

[4] = target: T2, human ROR1 (on the cell surface) (human, UniProt Q01973 30-937); test: flow cytometry, Ba/F3-ROR1 cells
T2 construct: whole, on cells; Ba/F3 cells carry it by lentiviral transduction; also called Ba/F3-ROR1; ROR1 on the surface of human cells
Description: (§1) The affinities of 19F6_Hu35V1, 3D8_HuC24 and 38F8_Hu57 to ROR1 on the surface of human cells were determined by flow cytometry.
(§2) In addition to Ba/F3-ROR1 overexpression cells, human mantle cell lymphoma cell line Jeko-1 (Nanjing Cobioer Biosciences), human colon cancer cell line HT-29 (the Cell Bank of the Chinese Academy of Sciences), human lung cancer cell line A549 (the Cell Bank of the China Academy of Sciences) were also used for flow cytometry analysis. Anti-ROR1 antibody UC961 (the VH and VL of antibody UC961 were SEQ ID NO: 5 and 6 disclosed in WO2018237335A1, respectively) and anti-TNP antibody were used as positive control and negative control, respectively. Ba/F3-ROR1, Jeko-1, HT-29 and A549 cells were incubated with different concentration gradients of the purified humanized antibodies on ice for 30 minutes, respectively, washed with flow buffer (PBS+2% FBS) twice, then incubated with goat anti-human fluorescent secondary antibody (Jackson ImmunoResearch) on ice for 30 minutes, and finally loaded on the machine for detection.

[5] = target: T2, human ROR1 (on the cell surface); test: flow cytometry, Jeko-1 cells
Description: as §1, §2

[6] = target: T2, human ROR1 (on the cell surface); test: flow cytometry, Ba/F3-ROR1 cells; remark: listed apart in the source
Description: as §1, §2

[7] = target: T2, human ROR1 (on the cell surface); test: flow cytometry, A549 cells
Description: as §1, §2

[8] = target: T2, human ROR1 (on the cell surface); test: flow cytometry, Jeko-1 cells; remark: listed apart in the source
Description: as §1, §2

[9] = target: T2, human ROR1 (on the cell surface); test: flow cytometry, HT-29 cells
Description: as §1, §2

human ROR1 ECD protein [10] = target: T1, human ROR1 ECD protein; test: BLI (Octet ForteBio), antibody on AHC probe, ROR1 ECD in solution, 1:1 model; average of three determinations
[11] = target: T2, human ROR1 (on the cell surface); test: flow cytometry, Jeko-1 cells; remark: listed apart in the source
[12] = target: T2, human ROR1 (on the cell surface); test: flow cytometry, HT-29 cells; remark: listed apart in the source
Description: as §1, §2

[13] = target: T2, human ROR1 (on the cell surface); test: flow cytometry, A549 cells; remark: listed apart in the source
Description: as §1, §2

[14] = target: T2, human ROR1 (on the cell surface); test: flow cytometry, Ba/F3-ROR1 cells; remark: listed apart in the source
Description: as §1, §2

[15] = target: T2, human ROR1 (on the cell surface); test: flow cytometry, A549 cells; remark: listed apart in the source
Description: as §1, §2

[16] = target: T2, human ROR1 (on the cell surface); test: flow cytometry, HT-29 cells; remark: listed apart in the source
Description: as §1, §2

T2 sequence (Q01973 30-937): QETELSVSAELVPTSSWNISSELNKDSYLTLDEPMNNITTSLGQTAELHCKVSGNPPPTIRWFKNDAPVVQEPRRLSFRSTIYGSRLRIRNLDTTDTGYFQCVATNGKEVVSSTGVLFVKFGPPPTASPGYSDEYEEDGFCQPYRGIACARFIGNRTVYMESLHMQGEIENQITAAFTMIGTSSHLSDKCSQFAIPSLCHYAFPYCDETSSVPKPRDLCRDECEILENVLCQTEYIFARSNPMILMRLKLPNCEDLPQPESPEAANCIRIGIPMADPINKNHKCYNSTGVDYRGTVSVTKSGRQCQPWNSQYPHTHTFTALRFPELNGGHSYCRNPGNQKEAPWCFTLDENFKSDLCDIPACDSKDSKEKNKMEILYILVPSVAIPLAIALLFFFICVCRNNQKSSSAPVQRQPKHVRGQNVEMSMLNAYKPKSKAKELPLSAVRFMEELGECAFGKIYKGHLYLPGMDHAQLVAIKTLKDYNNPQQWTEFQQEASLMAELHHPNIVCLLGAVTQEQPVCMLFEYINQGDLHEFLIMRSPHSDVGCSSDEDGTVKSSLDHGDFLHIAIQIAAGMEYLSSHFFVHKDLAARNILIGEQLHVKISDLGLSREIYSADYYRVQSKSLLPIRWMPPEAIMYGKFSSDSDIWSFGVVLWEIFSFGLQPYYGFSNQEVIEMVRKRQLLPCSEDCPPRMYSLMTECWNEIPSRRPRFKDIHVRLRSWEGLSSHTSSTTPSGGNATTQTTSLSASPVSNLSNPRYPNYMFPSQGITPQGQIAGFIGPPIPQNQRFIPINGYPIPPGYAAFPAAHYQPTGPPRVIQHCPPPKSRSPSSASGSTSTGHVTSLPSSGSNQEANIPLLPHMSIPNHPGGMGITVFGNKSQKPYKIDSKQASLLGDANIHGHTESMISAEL
T1 sequence (Q01973 30-406): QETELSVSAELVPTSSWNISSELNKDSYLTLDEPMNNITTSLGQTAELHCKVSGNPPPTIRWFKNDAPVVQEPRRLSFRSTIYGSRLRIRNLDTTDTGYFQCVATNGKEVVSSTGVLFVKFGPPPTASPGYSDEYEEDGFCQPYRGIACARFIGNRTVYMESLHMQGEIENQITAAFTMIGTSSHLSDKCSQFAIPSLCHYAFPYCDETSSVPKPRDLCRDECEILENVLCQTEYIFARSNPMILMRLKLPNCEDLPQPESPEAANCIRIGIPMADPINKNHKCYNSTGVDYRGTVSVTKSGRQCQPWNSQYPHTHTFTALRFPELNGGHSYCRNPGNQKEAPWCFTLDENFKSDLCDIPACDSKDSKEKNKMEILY
Chain of human ROR1 ECD protein (Homo sapiens, UniProt Q01973) (Q01973 30-406 limits assumed): as the sequence (Q01973 30-406) above
Chain of human ROR1 (on the cell surface) (human) (Q01973 30-937): as the sequence (Q01973 30-937) above

positive rate [1]: 100%
B1: Anti-human ROR1 antibody D10 (antibody, from another filing, V domains shown)
VH: QVQLKESGPGLVAPSQTLSITCTVSGFSLTSYGVHWVRQPPGKGLEWLGVIWAGGFTNYNSALKSRLSISKDNSKSQVLLKMTSLQTDDTAMYYCARRGSSYSMDYWGQGTSVIVSS
VL: EIVLSQSPAITAASLGQKVTITCSASSNVSYIHWYQQRSGTSPRPWIYEISKLASGVPVRFSGSGSGTSYSLTISSMEAEDAAIYYCQQWNYPLITFGSGTKLEIQ

fold stronger affinity (KD) than control antibody UC961 (human ROR1 ECD protein [2]): 5.4 fold
B2: 19F6_Hu35V1 (antibody, human IgG1, kappa, V domains shown)
VH: QVQLQESGPGLVKPSQTLSLTCTVSGYSITSDYAWNWIRQFPGKGLEWIGYISYSGSIRYNPSLKSRVTISRDTSKNQFSLKLSSVTAADTAVYYCARGEITYYFDYWGQGTLVTVSS
VL: ETTLTQSPAFMSATPGDKVTISCKASTSIDDDMNWYQQKPGEPPKLIISEGNTLRPGIPPRFSSSGYGTDFTFTINKIKSEDAATYYCLQSNDLPLTFGQGTKLEIKR
notes: Humanized anti-human ROR1 antibody, human IgG1/kappa, expressed in Expi293F cells and purified with Protein A

kdis (human ROR1 ECD protein [3]): 0.000863 s⁻¹
kon (human ROR1 ECD protein [3]): 538000 M⁻¹ s⁻¹
dissociation rate versus control antibody UC961 (as shown by the Kdis value) (human ROR1 ECD protein [3]; versus UC961): significantly slower
B3: 19F6_Hu35V1: humanized anti-ROR1 antibody; VH SEQ ID NO:1, VL SEQ ID NO:2, human IgG1 heavy and kappa light chain constant regions (antibody, V domains shown)
VH: B2 VH
VL: ETTLTQSPAFMSATPGDKVTISCKASTSIDDDMNWYQQKPGEPPKLIISEGNTLRPGIPPRFSSSGYGTDFTFTINKIKSEDAATYYCLQSNDLPLTFGQGTKLEIK
modifications: human IgG1 and kappa constant regions; 19F6_Hu35V1 VH; 19F6_Hu35V1 VL

EC50 [4]: 0.3 nM
EC50 [5]: 0.06 nM
EC50 [6]: 1.07 nM
EC50 [7]: 0.21 nM
EC50 [8]: 0.14 nM
EC50 [9]: 0.2 nM
Kd (human ROR1 ECD protein [10]): 8.73 nM
koff (human ROR1 ECD protein [10]): 0.0112 s⁻¹
kon (human ROR1 ECD protein [10]): 1.26e+06 M⁻¹ s⁻¹
EC50 [11]: 0.36 nM
EC50 [12]: 0.21 nM
EC50 [13]: 0.46 nM
EC50 [14]: 0.31 nM
EC50 [15]: 0.16 nM
EC50 [16]: 0.37 nM
B4: Anti-ROR1 antibody UC961 (antibody, V domains shown)
VH: QVQLQESGPGLVKPSQTLSLTCTVSGYAFTAYNIHWVRQAPGQGLEWMGSFDPYDGGSSYNQKFKDRLTISKDTSKNQVVLTMTNMDPVDTATYYCARGWYYFDYWGHGTLVTVSS
VL: DIVMTQTPLSLPVTPGEPASISCRASKSISKYLAWYQQKPGQAPRLLIYSGSTLQSGIPPRFSGSGYGTDFTLTINNIESEDAAYYFCQQHDESPYTFGEGTKVEIK

kdis (human ROR1 ECD protein [3]): 0.0153 s⁻¹
kon (human ROR1 ECD protein [3]): 586000 M⁻¹ s⁻¹
affinity versus control antibody UC961 (human ROR1 ECD protein [3]; versus UC961): comparable
B5: 3D8_HuC24: humanized anti-ROR1 antibody; VH SEQ ID NO:9, VL SEQ ID NO:10, human IgG1 heavy and kappa light chain constant regions (antibody, V domains shown)
VH: EVQLVESGGGLVQPGGSLRLSCAASGFTFSSYAMSWVRQAPGKGLEWVASINSGGSTYYPDSVKGRFTISRDNAKNSLYLQMNSLRAEDTAVYYCARVNYYGYGDYAMDYWGQGTLVTVSS
VL: DIQMTQSPSSLSASVGDRVTITCQASQDISNYLTWFQQKPGKSPKTLIHRANRLVTGVPSRFSGSGSGTDFTFTISSLQPEDIATYYCLQYDEFPYTFGGGTKVEIK
modifications: human IgG1 and kappa constant regions; 3D8_HuC24 VH; 3D8_HuC24 VL

kdis (human ROR1 ECD protein [3]): 0.00242 s⁻¹
kon (human ROR1 ECD protein [3]): 241000 M⁻¹ s⁻¹
affinity versus control antibody UC961 (human ROR1 ECD protein [3]; versus UC961): comparable
B6: 38F8_Hu57: humanized anti-ROR1 antibody; VH SEQ ID NO:17, VL SEQ ID NO:18, human IgG1 heavy and kappa light chain constant regions (antibody, V domains shown)
VH: EVQLVESGGGLVQPGGSLRLSCAASGFTFSNYAMSWVRQAPEKRLEWVASISSGGPTYYPDSVKGRFTVSRDNSKNTLYLQMNSLRAEDTAVYYCARGYRYDVNWYFDVWGAGTMVTVSS
VL: B5 VL with F71Y, T85I
modifications: human IgG1 and kappa constant regions; 38F8_Hu57 VH; 38F8_Hu57 VL
